Test results from the DeepSol protein solubility set.

assay: soluble on expression in E. coli; label from the status in PepcDB or PDB records

Sequence	soluble on expression in E. coli
MSLKKILIIVPDGGMLFESAGIADILMQANRLHPEGAREICYQVKLATTQPHQVIHGQSGLNLLADHRLHEIDPREPLDTIMITGRGQNPQEGMAVVDWLRLAAPHARRIVSICGGAMLLAQTGLLDGRRATTHWKLLETMQAEFPQIRVEGGPLYIQDEHIWTSGGVSSGFDLTLALVEEDYGFSLARDIAQDFVMYLRRPGGQLQFSRYNLQQTATQGPINDLLAWLLENLTADLSVDKLAEKVAMSPRNFTRVFTRETGASPARYVAEARLAAARQRLEQTHETLDRIAEQTGFGSSINLRRLFEKQLNLTPGEYRQRFHCRKMAEGHHHHHH	soluble
MSLKKINFGIVGLGRLGRAHAENLAFKIPNANLLAVCSIDKSQVDEVQKAWNIPYGYTDFDEMLKNKELDAIFIASPSGFHCEQIEKALDAGFHVFSEKPLGLYLDDAVRAMKAVNSHPNQIFMLGFMRRYDKSYAYAKKKIEEGAIGKPVLVRCYGLDPAKALPSFLKFAKDSYSGGLFLDMAIHDIDLARWYLDSEADELWAIGGAYGHKEFDEINDAETGAAMVKFKNGTMALLVAGRNCAHGYHIETEIIGTEGTLRIGTTPDKNLVTVFDSRGVNKECAGGFLERFEDAYLAEVKEFVDCVLENRKPAVTVEDGVLSTIVGYACKESFETGELVKVNYEGYDKLIKEGHHHHHH	soluble
MSLKKISFIINGQVEIFPESDDLVQSINFGDNSVYLPILNNSHVKNIIDYNENNKLRLHNIVNFLYTVGQRWKNEEYSRRRTYIRDLKKYMGYSEAMAKLEANWISMILCSKGGLYDVVENELGSRHIMDEWLPQDESYIKAFPKGKSIHLLAGNVPLSGIMSILRAILTKNQCIIKTSSTDPFTANALALSFIDVDPNHPITRSLSVVYWPHQGDTSLAKEIMQHMDVIVAWGGEDAINWAVEHAPPYADVIKFGSKKSFCIIDNPVDLTSAATGAAHDICFYDQRACFSAQNIYYMGNQYEEFKLALIEKLNLYAHILPNAKKDFDEKAAYSLVQKESLFAGLKVEVDVHQRWMIIESNAGVEFNQPLGRCVYLHHVDNIEQVLPYVQKNKTQTISIFPWESAFKYRDALALRGAERIVEAGMNNIFRVGGSHDGMRPLQRLVTYISHERPSHYTAKDVAVEIEQTREGHHHHHH	soluble
MSLKKTQQKEIENVTNITGVRQIELWRRDDLQHPRLDEVAEEVPVALVYNGISHVVMMASPKDLEYFALGFSLSEGIIESPRDIFGMDVVPSCNGLEVQIELSSRRFMGLKERRRALAGRTGCGVCGVEQLNDIGKPVQPLPFTQTFDLNKLDDALRHLNDFQPVGQLTGCTHAAAWMLPSGELVGGHEDVGRHVALDKLLGRRSQEGESWQQGAVLVSSRASYEMVQKSAMCGVEILFAVSAATTLAVEVAERCNLTLVGFCKPGRATVYTHPQRLSNEGHHHHHH	soluble
MSLKKWFTILTFVLTAFLVTRTAIAETSPYVLMQQAADKLFSDIQANQSKIKQDPNYLRTIVRNDLLPYVNLEYAGSKVLGSYYKSTSAEQREKFFKTFGELIEQKYAQALTNYSNQKIQIESEKELGDNNFINIRVNIIQANGVAPILLYFKWRKGNKSGEWKVYDMVGAGVSMLEDTIKNWVGILNKQGIDTLITKMQQSASQPIIFNQEGGSHHHHHH	soluble
MSLKLTPEAAGTFAIAPTPFHDDGKIDDVSIDRLTDFYAEVGCEGVTVLGILGEAPKLDAAEAEAVATRFIKRAKSMQVIVGVSAPGFAAMRRLARLSMDAGAAGVMIAPPPSLRTDEQITTYFRQATEAIGDDVPWVLQDYPLTLSVVMTPKVIRQIVMDSASCVMLKHEDWPGLEKITTLRGFQKDGSLRPLSILCGNGGLFLDFEMERGADGAMTGYCFPDMLVDVVKLSKAGQRDLAHNLFDAHLPLIRYEHQQGVGLSVRKYVLKKRGLLSSSAQRKPGASLTDTAREEVDYLLSRLARVDKRADFEPRTKAAEEGHHHHHH	soluble
MSLKLWKNATFYQMTAEGDQVSAVLTENGQICAVGEAMDLEKQYVANITETIDLEGKVVFPGFVDAHIHLLWYGQALERLNLNQTTTKKEALALIAERTKQIASDEWLFVEGYDENKWSDEQTLISLADLDEVSQTNPILVRRIDYHSVSINSALQEKIADFSETGFDGGGEIVRDKTGEFIGVLRDNATTMAIDSFPAATPSELSAWLEIAITDLWSKGITGAHSEDLHYFTGFASTLAAFRNTIGSNKMPFRAHLLVHHAELAAFSASNESFVSGDAFLELGAMKIFYDGTVGSRTALMSAGYADNPSEKGLQIHSDQAFEDLVKAARKAGLPVAIHILGDQAFANVIRTLRANPPKEGQYDRLIHTPWLTEALIEEATGLPVLFDIQPQFMASDLPWALEVLGDNHPPLAFAWKTLLQAGFPLAGGSDAPIEVPNPFWGIHAAVTRTANADLDGVGYWPEQALTVFEAIQLYTKGAAFASYKTTTRGQIAPGFVADFTILAEDPFQMKQAELRQVSVVMTVVNEQIVYQKKEGHHHHHH	soluble
MSLKNIRHIYYVSENTGLLAKDSGKSLLCQFPGVEFQEELLPFIRTKDDAQRTINAIREKCGEEKPIIFSTIFDPEINKILQHEDVILLNICEPFLTQLEGMLGKNALRASGHSRNVDQQIMSNRVDAIHYTISHDDGTAIMDYEEADLIIVGVSRSGKTPISVFLATQMGIKTANYPLVEQDLTFCQLPEDIIKNKHKVVGLSISPDVLHTFREQRYKGSHYAQMSTCKRETLQSKRIFEKYDLPVVFSDARSIEETATQVAQELSKQWNPIFEGHHHHHH	soluble
MSLKNLHPIMLAGTGSDVGKSVIAAALCRIFKQDGYRPAPFKAQNMALNSYATPEGLEIGRAQAVQAEAAGVPCHTDMNPLLLKPSSDHTSQVVLNGRPIGNRNAFEYFRKEGREELRQEVNAAFDRLAARYNPIVMEGAGSISEINLRDTDLVNMPMACYADADVILVADIDRGGVFASVYGSVMLQTPEDKKRIKGVIINKFRGDIRLFESGVKMMEDLCGIPVLGIIPYYRNIHIEEEDSVGLDYKRMQAVEGKINIAVVLLRHLSNFTDFNRLERDERVHLYYTNNTEDLAKADIILLPGSKSTLDDLYELRRNGVAQAVLRAHREGVTVMGICGGYQLMGLEIHDPEGVEGEIRQLPGLGLLPVITTMQGEKVTRQVNFHFLENAETCQGYEIHMGETRPVPGEAVVPLNKLEDGGEDGCFVNQKCMGSYIHGILDNQAFIDYLLEPYAEKLEEGHHHHHH	not soluble
MSLKNNSEVFNVLHFSDIHIQLRYNVGAEANCTNLPCGAPDSYNKQLLPSSYNFSSYYQHFSPNVAKMEFSFYPDAHYDENSQYIKGDYYDFPLYRGWNFKNAPATSFGGYLTDSPAVLMNSSLISMAKMHKEKNFEFAIFTGDVVDHLLLSCTPEYTKEEEVKSFKAMKFFFNNLTVLPALGNHETGEYGQLSPIAYDFNGSYSWNQDEMVDLWINNEWFPAKDRYDLKSHYAGFSYVTNRGLKVIGLNSNAYYQKNLWSYIDLSTNPDLFGQWEFLVNELIESEEKGQRVWIMAHIPTTDYDTLPLQSRIFGKIVERFSPYTIANIFFAHTHMDQTHILYSTNSSKEAEDIINMSWVMQSVTPLANYNPSWRYYEVENESFNIINSFNYMTKLNDTEGHHHHHH	soluble
MSLKNVTEKNREIYKQLNDRQEEISRLQRDLIQTKEQVSINSNKILVYESEMEQCKQRYQDLSQQQKDAQKKDIEKLTNEISDLKGKLSSAENANADLENKFNRLKKQAHEKLDASKKQQAALTNELNELKAIKDKLEQDLHFENAKVIDLDTKLKAHELQSEDVSRDHEKDTYRTLMEEIESLKKELQIFKTANSSSDAFEKLKVNMEKEKDRIIDERTKEFEKKLQETLNKSTSSEAEYSKDIETLKKEWLKEYEDETLRRIKEAEENLKKRIRLPSEERIQKIISKRKEELEEEFRKKLKENAGSLTFLDNKGSGEDAEEELWNSPSKGNSERPSAVAGFINQKNLKPQEQLKNVKNDVSFNDSQSMVTNKENNIVDSSAAGNKAIPTFSFGKPFFSSNTSSLQSFQNPFTASQSNINTNAPLRTLNIQPEVAVKAAINFSNVTDLTNNSTDGAKITEIGSTSKRPIESGTSSDPDTKKVKESPANDQASNEEGHHHHHH	soluble
MSLKNYQSSDPFKEARVSSGCAHMNDQDDPVTMILRLKDVRKTAHNWKTFQSGAAPGRIVIPSEVNIRDTRQIPFEVDPPLHGAFRSLLDPWFKRPLKAQYQETLAQQVNALVDDVLKADSIDVVEDFALCLQSRALTLLLNTDADEADTWIGWGTHVFRSEDDPLDGDKAAILYDYIDEKIKASSPNPEGDLYSVLLAAEVEGKKLTHEEIKGIMILTFAGGRDTVINAVTNTVSYFAQHPESLARLRNEPEIIGRAIEELIRYFTPLTQMGRVVTQDTQVCEHAIKADSRVSLCWASANRDESVFESPNDVILDRKLNPHVSFGFSHHNCLGATHARQIMRVLIETLMAKVGSIDIIDFEENIEYLGEFERKVGFHKLHVNIHPREGHHHHHH	soluble
MSLKPINVVIIENENISRVGAAAILSETGKIQVCGLAKTGKEGIETVDQQKPDIVVINIDLPDINGTDVISLIKCKHTSIKIVVMTANSSRDTINAAISNGADCYYCKNNAREEVGERFIEAVMAAYNNESWIDPTINRILIDNLRSNDTADRDSLDLLSDFSNKEITVLKLAAGGMKNNEIANVMYVSEGTVRSYLHNSFIKLGVKDRLNAIREAIRLGILSFADEGHHHHHH	soluble
MSLKPLFGEKDESNISPITKQLTEEEASKVIAEVNGEQILYKDFYFIYSQQAAYYGLTTEDEDSLSDDTKEILNTIKKELLTQLIQQKLAKQKAKEAGYEVTKERLDEASEAIEEMIRNMAEQMKLSSPSEAESRDFLKEARDFINSELKAMRITMDEYIRDTAEYMIVTDFMEDLTKDIVVTDEEIKKYYDEQLKIQQENPEEAAYAEVQLIQPASSRVKHILIALPEEEQQEYQNLKSEGKDEEAEAYLKEKLEAIKPKAEEVLNKAKNGEDFEALIKEYGEDPGMESEQYKDGYTVTKNSGFIKSFEDASLALGVGEISDLVEGPYGYHIIKVYEKTEAKPYTQEEKKSEIESLLKSQKKTNFMNEKMKEWESASTIVRHDDEGHHHHHH	soluble
MSLKPNIQFEITGASRILPASGPITNLEILKNFPRTADKSQGFLEKFAEKIGEEFGFHTRYWCHKPWESLDNSRELSSESLAMQAVDKLITHSMSKDVDAFLLGSTTNKRFTGSQAAAVLGNLKLNAPAYDLKTGCSTSLSTLHFAYALMALGYQKILVCCSETLSKVIDPENEKTWIGLADGAASLLLEKSKEGSFTIEKSFFSTDGQYVNAFTTQGVFPPTHEQIDSVGYHLVGDETLMKELAYSRYMQMLDHLLPTEKEKNEITWVIPHQVNRKLIDQVLHENNLNNKIIIWDADTIGNIGGASVLYTLARAVEEKLFDRSGKILLMSVGGGLSYAGQVLNYQEGHHHHHH	soluble
MSLKPQKILIATDGSEASEKAADFGIETLRFEGAKVYAVYVIDTGSYGSVPVDEKKFKKIERLEEIGHKATSYVEKKATAAGMKVESIVLKGNPAEEIVDFAEEQRVDMIVVGSLGKSGIKRFMLGSVSEKVVRRAKIPVLVVREQKEIKPQKQILIAADCSKATEKAVDFGIEIAKLNGAKVYAVHVIDPIFNDLMEEAWAENAYEQFKKIGREAVSYVEEKANAAGVKVESAVLEGNPAEEIVDFAEEQKVDMIVVGSLGKSGYEQFAIGSVSSKVLRNAKVPVLIVHDIYEFVELFRRCQKSEEVLTPVAGEKEGHHHHHH	soluble
MSLKPTDLNLIPIFIAIYEERNLSRAAARLDITQPAVSKALARLRDIYDEPLFHRSSSGVEPTSFAVDIYPAMVAAIKNFTSTLSASVEFDPKVSNRIFSIACVSILSYELLPQLMKQIHELAPNIALEVHPLFTEDYESDLRLQRYDLIIDLAPRGRTVLKVEPVITERLMVVCNKDHPRIAESISQEQFFEEEHVAVSQWQSRKSMLSAEDIVDLDKRKIMYRAAGALEMLPVICGSEYIGLMPESMIKLFSNTYHVKALPFPFDVTTYDLCTIWHPSRTNESAHQWLRAQIKHAGKVIKEGHHHHHH	soluble
